Measurements taken from FireProtDB (doi:10.1021/bi012042l).

Settings: Rattus norvegicus; pH 7.3; 20 °C; GdnHCl; Fluorescence; potassium phosphate 20 mM; whole UniProt chain shown

B1: Fatty acid-binding protein, intestinal wild type, P02693 (protein)
chain: MAFDGTWKVDRNENYEKFMEKMGINVVKRKLGAHDNLKLTITQEGNKFTVKESSNFRNIDVVFELGVDFAYSLADGTELTGTWTMEGNKLVGKFKRVDNGKELIAVREISGNELIQTYTYEGVEAKRIFKKE
denaturant midpoint (higher = more stable): 1.4 M
unfolding free energy: 5 kcal/mol
